This series deals with the molecule itself. As to the kind of experiment: SEC-RALS; size-exclusion chromatography with right-angle light scattering; 50 µL of 2–10 mg/mL protein, 20 mM HEPES pH 7.5, 150 mM NaCl, Superdex 200 increase 10/300 GL, 25 °C.

B1: AtPHR1^280–360 KHR/A (domain or fragment)
chain: not shown
notes: AtPHR1, Arabidopsis thaliana, residues 280-360, KHR motif mutated to alanine; not shown: 6xHis, N-terminal, cleaved
Take B1: the binding result is on record as “binds”.

B2: full-length OsPHR2 (OsPHR2^1-426, wild type) (natural protein)
chain: not shown
notes: OsPHR2, rice MYB-CC transcription factor, residues 1-426, called full-length; also called wild-type OsPHR2; not shown: 8xHis, N-terminal, cleaved; Strep, N-terminal, cleaved; GB1, N-terminal, cleaved
Take B2: the “stoichiometry N” value was 4.

B3: wild-type AtPHR1^222–358 (domain or fragment)
chain: not shown
notes: AtPHR1, Arabidopsis thaliana, residues 222-358 (MYB and CC domains only); also called AtPHR1 MYB-CC; untagged AtPHR1^222–358; not shown: 6xHis, N-terminal, cleaved
Consider B3, for which the “stoichiometry N” value turned out to be 2.

B4: wild-type AtPHR1^280–360 (pMH-HT construct) (domain or fragment)
chain: not shown
notes: AtPHR1, Arabidopsis thaliana, residues 280-360 (coiled-coil domain); also called AtPHR1 CC; AtPHR^280–360; not shown: 6xHis, N-terminal, cleaved
For the protein B4, the “stoichiometry N” value worked out at 4.

The record behind these values is article PMC7810988, “Inositol pyrophosphates promote the interaction of SPX domains with the coiled-coil motif of PHR transcription factors to regulate plant phosphate homeostasis” (Nature Communications, 2019).
